Measured values as given in US20220048999A1 (Genmab, published 2022).
Residue numbers refer to the chain shown, from its start. Names and notes keep the numbering of the source.

What was measured:
[1] = biological target: T1, cynomolgus monkey (Macaca fascicularis) B7H4 transcript 1, full length, on HEK-293F cells (cynomolgus monkey, UniProt Q7Z7D3 25-282 (human entry)); assay: flow cytometry, HEK-293F cells transfected with cynomolgus monkey B7H4 (panel Cynomolgus monkey B7H4), about 0.0004-30 µg/ml, MFI PE
T1 construct: also called cynomolgus B7H4
T1 chain: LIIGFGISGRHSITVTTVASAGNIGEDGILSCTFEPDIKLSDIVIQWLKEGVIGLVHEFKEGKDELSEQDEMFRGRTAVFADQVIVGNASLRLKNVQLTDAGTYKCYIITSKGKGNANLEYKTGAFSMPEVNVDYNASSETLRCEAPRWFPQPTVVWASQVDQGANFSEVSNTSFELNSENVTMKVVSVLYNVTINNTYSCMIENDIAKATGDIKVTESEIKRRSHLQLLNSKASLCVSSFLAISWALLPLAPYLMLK
Description: (§1) Cells (3×10⁴ cells/well) were incubated in polystyrene 96-well round-bottom plates (Greiner bio-one, cat. no. 650180) with serial dilutions of antibodies (ranging from 0.000458 to 30 μg/mL in 4-fold dilution steps) in 100 μL PBS/0.1% BSA/0.02% azide (staining buffer) at 4° C. for 30 min. Experiments were performed in technical duplicate. After washing twice in staining buffer, cells were incubated in 50 μL secondary antibody at 4° C. for 30 min. As a secondary antibody, R-Phycoerythrin (PE)-conjugated goat-anti-human IgG F(ab′)₂ (1:500 in FACS buffer; Jackson ImmunoResearch Laboratories, Inc., West Grove, Pa., cat. no. 109-116-098), was used. Cells were washed twice in staining buffer, re-suspended in 30 μL FACS buffer containing Topro-3 (1:10,000 dilution) and analyzed on an iQue Screener (Intellicyt Corporation, USA). Binding curves were analyzed using non-linear regression (sigmoidal dose-response with variable slope) using Graph Pad Prism V7.02 software (GraphPad Software, San Diego, Calif., USA).

[2] = biological target: T2, human B7H4, full length, on cells (human, UniProt Q7Z7D3 25-282); assay: flow cytometry, HEK-293F cells transfected with human B7H4 (panel Human B7H4), about 0.0004-30 µg/ml, MFI PE
T2 construct: On transiently transfected HEK cells or on B7H4-expressing human tumor cell lines; also called VTCN1
T2 sequence: T1 chain with I53L, L242F, A252S
Description: as §1

[3] = biological target: T3, mouse (Mus musculus) B7H4, full length, on HEK-293F cells (mouse, UniProt Q7TSP5 25-257); assay: flow cytometry, HEK-293F cells transiently transfected with mouse B7H4 (panel Mouse B7H4), 0.000458-30 µg/ml, PE-anti-human IgG, MFI PE
T3 sequence: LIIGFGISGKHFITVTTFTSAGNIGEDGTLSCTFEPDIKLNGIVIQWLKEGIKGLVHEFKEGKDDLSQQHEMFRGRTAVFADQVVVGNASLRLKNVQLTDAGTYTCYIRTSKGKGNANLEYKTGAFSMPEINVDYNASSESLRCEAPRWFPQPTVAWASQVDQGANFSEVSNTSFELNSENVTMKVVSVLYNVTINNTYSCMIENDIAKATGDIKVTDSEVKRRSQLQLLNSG
Description: as §1

B1: IgG1-B7H4-C1-N52S-FEAR (antibody, V domains shown)
VH: QVQLQQWGAGLLKPSETLSLTCAVYGGSFSGYYWSWIRQPPGKGLEWIGEISHSGSTNYNPSLKSRVTISIDTSKNQFSLKLTSVTAADTAVFYCARGLFNWNFDSWGQGTLVTVSS
VL: DIQMTQSPSSLSASVGDRVTITCRASQGIRNDLGWYQQKPGKAPKRLIYGASSLQSGVPSRFSGSGSGTEFTLTISSLQPEDFATYYCLQHNSYPRTFGQGTTVEIKR
notes: Full-length human IgG1 with L234F, L235E, D265A, K409R (FEAR), kappa light chain; also called IgG1-B7H4-C1-052S-FEAR; IgG1-B7H4-C1-N525-FEAR
[1]
  EC50 (read off the curve): ~0.1 µg/mL
[2]
  EC50 (read off the curve): ~0.04 µg/mL
[3]
  EC50 (read off the curve): ~0.4 µg/mL
